Biological target: fluorescein-labelled divalent stargazin-derived peptide ligand
Assay: fluorescence polarisation; direct titration: 50 nM fluorescein-labelled stargazin ligand (divalent or monovalent) against increasing concentrations of PDZ domains; apparent KD

Kd: 175 nM
B1: SAP102 tandem PDZ domains 1 and 2 (SAP102-12), from pET-NO (domain or fragment)
chain: FKYEEIVLERGNSGLGFSIAGGIDNPHVPDDPGIFITKIIPGGAAAMDGRLGVNDCVLRVNEVDVSEVVHSRAVEALKEAGPVVRLVVRRRQPPPETIMEVNLLKGPKGLGFSIAGGIGNQHIPGDNSIYITKIIEGGAAQKDGRLQIGDRLLAVNNTNLQDVRHEEAVASLKNTSDMVYLKVAKPGSL
